Experiments:
[1] = substrate: O=[N+]([O-])c1ccc(O[C@@H]2O[C@H](CO)[C@@H](O)[C@H](O)[C@H]2O)cc1; experiment: purified protein; details: recombinant free enzyme; pH and temperature of the kinetic run not given
[2] = substrate: CC1(C)CC[C@]2(C(=O)O[C@@H]3O[C@H](CO)[C@@H](O)[C@H](O)[C@H]3O)CC[C@]3(C)C(=CC[C@@H]4[C@@]5(C)CC[C@H](O[C@@H]6O[C@H](C(=O)O)[C@@H](O)[C@H](O)[C@H]6O[C@@H]6O[C@H](CO)[C@@H](O)[C@H](O)[C@H]6O)C(C)(C)[C@@H]5CC[C@]43C)[C@@H]2C1; experiment: initial rate of ZR1 formation from Ro; assay type: biochemical, Paenibacillus lactis; details: recombinant free enzyme; pH and temperature of the kinetic run not given; hydrolysis of the C-28 glucosyl ester

B1: PlGH3 (Paenibacillus lactis; K755R/M754K) (protein)
chain: MRNHTLDTINKTEETVRYVQNPGGPTLGYSEESGVGIIEQDGLFFKDLSRDGKLDNYEDWRLTPEERAKDLASKMTVEQIAGLMLYSRHQSIPALSSGWFAGTYGGKTYEESGAKPWELTDEQIAFLTKDHVRHVLVTTVESPEVAARWNNKIQAFAEGTGLGIPANNSSDPRHASDSSSEFNAGAGGHISMWPETLGLAATFDPEITKKFGMIASREYRALGLATALSPQIDIATEPRWFRFNGTFGEDSKLAADMARAYVDGFQTSEGEREIADGWGYDSVNAMVKHWPGGGSGEAGRDAHYSCGKYAVYPGNNFDEHLVPFTEGAFKLDGKTGKASAVMPYYTISLGQDTVNGENVGNSYNSYLIRDLLRGKYGYDGVVCTDWMITADVSGPKDSFLSGKPWGVEDLTVGERHYKLQMAGVDQFGGNNEIEPVLEAYKIGVREHGEAYMRERFEQSAVRLLKNMFRLGLFENPYLDPQESATLVGNPEFMREGYEAQLKSIVMLKNKNGVLPLRAKSKVYIPKRFLPPGKDWFGNPTPESYDYPVNLEVVSKYFEVTDQPDEAEFGLVFITSPKSGTGYSQEDEERGGNGYVPISLQYKPYTAEHAREISLAGDEHGNEPRNRSYKGKTVIPHNTTDLNMVLETKEKMKGKPVIVSMLLCNPTVVSEFEAEVDAILANFGVQDQAMMEVLTGAAEPSGLLPMQMPAHMRTVEEQLEDVAHDMECHVDSEKHVYDFAFGMNWGGVIEDERTKRYRRS
notes: N-terminal His tag (pET-28a, BamHI/HindIII), E. coli BL21(DE3), Ni-NTA purified
[1]
  Km: 22.76 ± 1.33 µM
  kcat: 46.18 s⁻¹
[2]
  Km: 79.59 ± 3.42 µM
  kcat: 18.52 ± 0.28 s⁻¹
